The experiment deals with T7 peptide-added FC99 protein having T7 peptide added to the N-terminal of the amino acid sequence described as SEQ ID NO: 1 (human) (UniProt Q92529). The experiment can be described thus: cell-based or functional assay.
Chain of UniProt Q92529 (Q92529 other isoform, or with tags, fused parts or gaps limits assumed): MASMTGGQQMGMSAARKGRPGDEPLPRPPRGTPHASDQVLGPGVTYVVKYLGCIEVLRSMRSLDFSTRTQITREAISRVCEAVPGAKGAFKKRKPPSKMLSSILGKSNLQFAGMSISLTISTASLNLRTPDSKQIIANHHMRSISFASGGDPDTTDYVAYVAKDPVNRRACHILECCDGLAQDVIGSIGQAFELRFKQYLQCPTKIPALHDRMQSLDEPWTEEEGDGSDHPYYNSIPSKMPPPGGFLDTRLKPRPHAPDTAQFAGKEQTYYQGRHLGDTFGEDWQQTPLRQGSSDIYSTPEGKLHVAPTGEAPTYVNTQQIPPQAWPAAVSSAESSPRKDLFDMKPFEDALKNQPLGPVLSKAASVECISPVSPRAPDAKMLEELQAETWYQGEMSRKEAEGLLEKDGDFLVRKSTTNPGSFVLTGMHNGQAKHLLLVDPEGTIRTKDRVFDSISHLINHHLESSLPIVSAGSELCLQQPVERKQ

Substance “TrkB receptor activated by the administration of BDNF” returned a BDNF-dependent increase in the tyrosine phosphorylation of the FC99 protein (band densities of Lanes 2 and 3, NIH Image) of 2 fold.
